Results: patent US20260242478A1 (published 2026)
Where no end group is shown, it is not given here.

Key:
[1] = target: T1, Anti-PSMA Fab (SEQ ID NOs: 19, 20); test: phage binding ELISA; Fab-coated wells pre-incubated with PSMA antigen (competitor: PSMA), then clonal phage, anti-M13 HRP detection
T1 construct: Biotinylated and captured on neutravidin coated plates in the phage ELISA; also called 006 PSMA Fab

[2] = target: T1, Anti-PSMA Fab (SEQ ID NOs: 19, 20); test: phage binding ELISA; biotinylated anti-PSMA Fab captured on neutravidin plate, clonal phage supernatant, anti-M13 HRP detection
anti-CD28 Fab = test: competition ELISA, peptide titrated 0-100 uM against 1 nM anti-CD28 Fab, plate-bound CD28 as competitor
Ab-15 [3] = test: competition ELISA: peptide titrated against 1 nM Ab-15; competitor plate-bound CD28
Ab-15 [4] = test: BLI (Octet): sensor loaded with 200 nM biotinylated peptide, 100 nM Ab-15;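 further: binding association and dissociation tracked in real time, fitted to a 1:1 binding model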
Ab-15 [5] = test: binding ELISA: biotinylated peptide on neutravidin plate, Ab-15 titrated

FVPCIPSHWLCPIW (tested as crude phage supernatant) [Phage-1741 (clonal phage displaying the peptide of SEQ ID NO: 2037)]
Anti-PSMA Fab signal in the presence of PSMA [1]: 0.292 | Anti-PSMA Fab (SEQ ID NOs: 19, 20) signal [2]: 1.05

LCAAGASWPWPVCL [Peptide-138]
IC50 (anti-CD28 Fab): 3610 nM

LCAAGATYPWPLCL [Peptide-144]
IC50 (anti-CD28 Fab): 3040 nM

LCAAGATYPWPTCL [Peptide-147]
IC50 (anti-CD28 Fab): 8150 nM

ADWCPRDLWVHCFA (cysteine pairing not given here; also: biotinylated, site not given here, CD28 peptide mask) [Peptide-52]
IC50 (Ab-15 [3]): 2000 nM | Octet signal (Ab-15 [4]): 0.7 | t1/2 (Ab-15 [4]): 3.1 min | EC50 (Ab-15 [5]): 75.9 nM

VDWCPRDLWVHCFA (cysteine pairing not given here; also: biotinylated, site not given here, CD28 peptide mask) [Peptide-69]
IC50 (Ab-15 [3]): 4420 nM | Octet signal (Ab-15 [4]): 0.919 | t1/2 (Ab-15 [4]): 2.9 min | EC50 (Ab-15 [5]): 32.5 nM

FDWCPRDLWVHCFA (cysteine pairing not given here; also: biotinylated, site not given here, CD28 peptide mask) [Peptide-63]
IC50 (Ab-15 [3]): 780 nM | Octet signal (Ab-15 [4]): 1.01 | t1/2 (Ab-15 [4]): 3.3 min | EC50 (Ab-15 [5]): 39.3 nM

NDWCPRDLWVHCFA (cysteine pairing not given here; also: biotinylated, site not given here, CD28 peptide mask) [Peptide-54]
IC50 (Ab-15 [3]): 5030 nM | Octet signal (Ab-15 [4]): 0.434 | t1/2 (Ab-15 [4]): 4 min | EC50 (Ab-15 [5]): 84.3 nM

YDWCPRDLWVHCFA (cysteine pairing not given here; also: biotinylated, site not given here, CD28 peptide mask) [Peptide-68]
IC50 (Ab-15 [3]): 3250 nM | Octet signal (Ab-15 [4]): 0.849 | t1/2 (Ab-15 [4]): 2.9 min | EC50 (Ab-15 [5]): 32.2 nM

HDWCPRDLWVHCFA (cysteine pairing not given here; also: biotinylated, site not given here, CD28 peptide mask) [Peptide-59]
IC50 (Ab-15 [3]): 2180 nM | Octet signal (Ab-15 [4]): 0.737 | t1/2 (Ab-15 [4]): 3 min | EC50 (Ab-15 [5]): 45.4 nM

LDWCPRDLWVHCFA (cysteine pairing not given here; also: biotinylated, site not given here, CD28 peptide mask) [Peptide-61]
IC50 (Ab-15 [3]): 630 nM | Octet signal (Ab-15 [4]): 1.37 | t1/2 (Ab-15 [4]): 4.5 min | EC50 (Ab-15 [5]): 23.4 nM

PDWCPRDLWVHCFA (cysteine pairing not given here; also: biotinylated, site not given here, CD28 peptide mask) [Peptide-64]
IC50 (Ab-15 [3]): 8340 nM | Octet signal (Ab-15 [4]): 0.328 | t1/2 (Ab-15 [4]): 3.4 min | EC50 (Ab-15 [5]): 102 nM

DDWCPRDLWVHCFA (cysteine pairing not given here; also: biotinylated, site not given here, CD28 peptide mask) [Peptide-55]
IC50 (Ab-15 [3]): 4460 nM | Octet signal (Ab-15 [4]): 0.461 | t1/2 (Ab-15 [4]): 4.2 min | EC50 (Ab-15 [5]): 86.8 nM

SDWCPRDLWVHCFA (cysteine pairing not given here; also: biotinylated, site not given here, CD28 peptide mask) [Peptide-65]
IC50 (Ab-15 [3]): 2630 nM | Octet signal (Ab-15 [4]): 0.551 | t1/2 (Ab-15 [4]): 2.9 min | EC50 (Ab-15 [5]): 66.5 nM

GDWCPRDLWVHCFA (cysteine pairing not given here; also: biotinylated, site not given here, CD28 peptide mask) [Peptide-58]
IC50 (Ab-15 [3]): 7060 nM | Octet signal (Ab-15 [4]): 0.479 | t1/2 (Ab-15 [4]): 3.9 min | EC50 (Ab-15 [5]): 73.9 nM

IDWCPRDLWVHCFA (cysteine pairing not given here; also: biotinylated, site not given here, CD28 peptide mask) [Peptide-60]
IC50 (Ab-15 [3]): 2660 nM | Octet signal (Ab-15 [4]): 0.845 | t1/2 (Ab-15 [4]): 3.1 min | EC50 (Ab-15 [5]): 44.9 nM

WDWCPRDLWVHCFA (cysteine pairing not given here; also: biotinylated, site not given here, CD28 peptide mask) [Peptide-67]
IC50 (Ab-15 [3]): 2800 nM | Octet signal (Ab-15 [4]): 1.15 | t1/2 (Ab-15 [4]): 4.1 min | EC50 (Ab-15 [5]): 21.7 nM

TCAAGATWSWPACF [Peptide-142]
IC50 (anti-CD28 Fab): 620 nM

IRCVGEGHDLVCIF (tested as crude phage supernatant) [Phage-1724 (clonal phage displaying the peptide of SEQ ID NO: 2008)]
Anti-PSMA Fab signal in the presence of PSMA [1]: 0.081 | Anti-PSMA Fab (SEQ ID NOs: 19, 20) signal [2]: 2.12

NAHCWLWVPAHCRV (tested as crude phage supernatant) [Phage-1729 (clonal phage displaying the peptide of SEQ ID NO: 2013)]
Anti-PSMA Fab signal in the presence of PSMA [1]: 0.0672 | Anti-PSMA Fab (SEQ ID NOs: 19, 20) signal [2]: 1.35

TCSAGASYPWPLCL [Peptide-139]
IC50 (anti-CD28 Fab): 2190 nM

TCSAGAAYPWPLCL [Peptide-145]
IC50 (anti-CD28 Fab): 7700 nM

HLFCWEGSDRCAWV (tested as crude phage supernatant) [Phage-1727 (clonal phage displaying the peptide of SEQ ID NO: 2011)]
Anti-PSMA Fab signal in the presence of PSMA [1]: 0.0753 | Anti-PSMA Fab (SEQ ID NOs: 19, 20) signal [2]: 1.4

TCSAGATWPWPICL [Peptide-137]
IC50 (anti-CD28 Fab): 890 nM

TCSAGAHYPWPICL [Peptide-150]
IC50 (anti-CD28 Fab): 4760 nM

FGHCAGSPVFCAYW (tested as crude phage supernatant) [Phage-1730 (clonal phage displaying the peptide of SEQ ID NO: 2014)]
Anti-PSMA Fab signal in the presence of PSMA [1]: 0.054 | Anti-PSMA Fab (SEQ ID NOs: 19, 20) signal [2]: 1.06

EGCLTLVDGRAWCW (tested as crude phage supernatant) [Phage-1735 (clonal phage displaying the peptide of SEQ ID NO: 2019)]
Anti-PSMA Fab signal in the presence of PSMA [1]: 0.0521 | Anti-PSMA Fab (SEQ ID NOs: 19, 20) signal [2]: 1.05

SCGWLRGEEFGWWC (tested as crude phage supernatant) [Phage-1739 (clonal phage displaying the peptide of SEQ ID NO: 2023)]
Anti-PSMA Fab signal in the presence of PSMA [1]: 0.0625 | Anti-PSMA Fab (SEQ ID NOs: 19, 20) signal [2]: 0.891

TCSAGATYEWPRCL [Peptide-149]
IC50 (anti-CD28 Fab): 2660 nM

NCFFAADIHWNFCT (tested as crude phage supernatant) [Phage-1731 (clonal phage displaying the peptide of SEQ ID NO: 2015)]
Anti-PSMA Fab signal in the presence of PSMA [1]: 0.18 | Anti-PSMA Fab (SEQ ID NOs: 19, 20) signal [2]: 1.48

SCSAGAHYPWPQCF [Peptide-148]
IC50 (anti-CD28 Fab): 5670 nM

ACHSLVLKHHLQKC (tested as crude phage supernatant) [Phage-1738 (clonal phage displaying the peptide of SEQ ID NO: 2022)]
Anti-PSMA Fab signal in the presence of PSMA [1]: 0.0624 | Anti-PSMA Fab (SEQ ID NOs: 19, 20) signal [2]: 1.18

MEYCSFHRFTCVLW (tested as crude phage supernatant) [Phage-1736 (clonal phage displaying the peptide of SEQ ID NO: 2020)]
Anti-PSMA Fab signal in the presence of PSMA [1]: 0.12 | Anti-PSMA Fab (SEQ ID NOs: 19, 20) signal [2]: 1.74

PLCGTEEVWWECRL (tested as crude phage supernatant) [Phage-1728 (clonal phage displaying the peptide of SEQ ID NO: 2012)]
Anti-PSMA Fab signal in the presence of PSMA [1]: 0.0694 | Anti-PSMA Fab (SEQ ID NOs: 19, 20) signal [2]: 1.57

PDCVYHSFWGYSCR (tested as crude phage supernatant) [Phage-1740 (clonal phage displaying the peptide of SEQ ID NO: 2024)]
Anti-PSMA Fab signal in the presence of PSMA [1]: 0.0641 | Anti-PSMA Fab (SEQ ID NOs: 19, 20) signal [2]: 0.583

FCGWMDGDVFWFCG (tested as crude phage supernatant) [Phage-1733 (clonal phage displaying the peptide of SEQ ID NO: 2017)]
Anti-PSMA Fab signal in the presence of PSMA [1]: 0.145 | Anti-PSMA Fab (SEQ ID NOs: 19, 20) signal [2]: 0.428

TCAAGAAWPWPQCL [Peptide-140]
IC50 (anti-CD28 Fab): 760 nM

SIPCIPRDWLCPIK (tested as crude phage supernatant) [Phage-1725 (clonal phage displaying the peptide of SEQ ID NO: 2009)]
Anti-PSMA Fab signal in the presence of PSMA [1]: 0.239 | Anti-PSMA Fab (SEQ ID NOs: 19, 20) signal [2]: 1.8

TCAAGAAWGWPLCF [Peptide-143]
IC50 (anti-CD28 Fab): 2560 nM

ICQWIGATNAWVCY (tested as crude phage supernatant) [Phage-1726 (clonal phage displaying the peptide of SEQ ID NO: 2010)]
Anti-PSMA Fab signal in the presence of PSMA [1]: 0.326 | Anti-PSMA Fab (SEQ ID NOs: 19, 20) signal [2]: 1.82

TCSAGAAYSWPACF [Peptide-146]
IC50 (anti-CD28 Fab): 16100 nM

HCKFHDYHSWYMCY (tested as crude phage supernatant) [Phage-1737 (clonal phage displaying the peptide of SEQ ID NO: 2021)]
Anti-PSMA Fab signal in the presence of PSMA [1]: 0.117 | Anti-PSMA Fab (SEQ ID NOs: 19, 20) signal [2]: 1.58

FCQWIEATNAWLCY (tested as crude phage supernatant) [Phage-1732 (clonal phage displaying the peptide of SEQ ID NO: 2016)]
Anti-PSMA Fab signal in the presence of PSMA [1]: 0.119 | Anti-PSMA Fab (SEQ ID NOs: 19, 20) signal [2]: 1.06

TCSAGATYTWPKCF [Peptide-141]
IC50 (anti-CD28 Fab): 2220 nM

FCNWVDGDVWVVCK (tested as crude phage supernatant) [Phage-1734 (clonal phage displaying the peptide of SEQ ID NO: 2018)]
Anti-PSMA Fab signal in the presence of PSMA [1]: 0.0607 | Anti-PSMA Fab (SEQ ID NOs: 19, 20) signal [2]: 0.51
